Article PMC5353671, “A bacterial aromatic aldehyde dehydrogenase critical for the efficient catabolism of syringaldehyde” (Scientific Reports, 2017)

Assays:
COc1cc(C=O)ccc1O = test system: T1, COc1cc(C=O)ccc1O; assay: HPLC, Hanes-Woolf plot; format: biochemical, Sphingobium sp. SYK-6; details: 500 μM NAD+, pH 7.0 phosphate buffer, 30 °C
T1 construct: calculated Mr 55,173; dimer 120 kDa
Text: (§1) HPLC, Hanes-Woolf plot on DesV (SLG_28320)

COc1cc(C=O)cc(OC)c1O = test system: T2, COc1cc(C=O)cc(OC)c1O; assay: HPLC, Hanes-Woolf plot; format: biochemical, Sphingobium sp. SYK-6; details: 500 μM NAD+, pH 7.0 phosphate buffer, 30 °C
T2 construct: calculated Mr 55,173; dimer 120 kDa
Text: as §1

[1] = target: LigV (vanillin dehydrogenase), His-tag fused (Sphingobium sp. SYK-6); assay: SEC; Superdex200 10/300GL, 50 mM KH2PO4-K2HPO4 buffer (pH 7.0) with 150 mM NaCl, 0.5 ml/min; native mass estimated and compared with the monomer size
[2] = target: DesV (SLG_28320 gene product), His-tag fused (Sphingobium sp. SYK-6); assay: as above

Chain of DesV (SLG_28320) (Sphingobium sp. SYK-6) (chain, as listed by the source): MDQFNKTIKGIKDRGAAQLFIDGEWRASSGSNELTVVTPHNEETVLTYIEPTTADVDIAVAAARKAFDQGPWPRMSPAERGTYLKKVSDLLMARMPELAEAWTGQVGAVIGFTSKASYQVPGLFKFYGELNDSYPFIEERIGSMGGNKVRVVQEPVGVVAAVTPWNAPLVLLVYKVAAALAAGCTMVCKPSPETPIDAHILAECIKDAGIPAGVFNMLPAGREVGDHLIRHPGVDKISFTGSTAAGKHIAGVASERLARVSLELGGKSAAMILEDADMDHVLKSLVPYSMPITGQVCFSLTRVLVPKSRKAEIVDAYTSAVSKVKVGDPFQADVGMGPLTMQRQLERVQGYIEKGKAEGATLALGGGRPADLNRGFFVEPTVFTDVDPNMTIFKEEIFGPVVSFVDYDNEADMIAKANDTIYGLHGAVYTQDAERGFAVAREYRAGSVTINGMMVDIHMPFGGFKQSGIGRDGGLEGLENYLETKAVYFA

DesV (SLG_28320) (Sphingobium sp. SYK-6)
Km (COc1cc(C=O)ccc1O): 0.47 ± 0.04 µM
Vmax (COc1cc(C=O)ccc1O): 0.85 µmol/min/mg
kcat (COc1cc(C=O)ccc1O): 0.79 ± 0.01 s⁻¹
kcat/Km (COc1cc(C=O)ccc1O): 1.7e+06 ± 140000 M⁻¹ s⁻¹
Km (COc1cc(C=O)cc(OC)c1O): 0.48 ± 0.03 µM
Vmax (COc1cc(C=O)cc(OC)c1O): 1.08 µmol/min/mg
kcat (COc1cc(C=O)cc(OC)c1O): 0.99 ± 0.01 s⁻¹
kcat/Km (COc1cc(C=O)cc(OC)c1O): 2.1e+06 ± 93000 M⁻¹ s⁻¹

LigV (vanillin dehydrogenase), His-tag fused (enzyme)
stoichiometry N [1]: 4

DesV (SLG_28320 gene product), His-tag fused (enzyme)
stoichiometry N [2]: 2
